In test [1] the target is LRO4. As to the kind of experiment: phage ELISA, coated LRO4. For orientation: ELISA stands for enzyme-linked immunosorbent assay.
In test [2] the target is LRO4. The test is described as follows: competitive phage ELISA, coated LRO4; competitor MDA-LDL 50 µg/mL.
Test [3] has as its target control isotype anti-KLH IgM Ab (C48-6; BD Bioscience-Pharmingen). The test is described as follows: phage ELISA, coated control IgM.

Bridges are numbered along the chain shown (N, C = ends). Where no end group is shown, it is not given here.

As to HRMTNAMHHFMGGGGS (peptide, not shown: large carriers) [phage clone A38], the OD (binding of phages to LR04) with LRO4 [1] came to 0.64 OD. Moreover, the B/Bo (inhibition of binding to LR04) with LRO4 [2] is 0.1 B/Bo. The OD (binding of phages to control IgM) in test [3] worked out at 0.21 OD.
The molecule ACNNQNMPLCGGGS (peptide, not shown: large carriers, disulfide 2-10; also: C-terminus fused to phage pIII) [phage clone Cb9] displayed an OD (binding of phages to LR04) with LRO4 [1] of 0.7 OD. The molecule also showed a B/Bo (inhibition of binding to LR04) in the test with LRO4 [2] of 0.02 B/Bo. This molecule also showed an OD (binding of phages to control IgM) in test [3] of 0.01 OD.
In the test with LRO4 [1], ACNNWKMPLCGGGS (peptide, not shown: large carriers, disulfide 2-10; also: C-terminus fused to phage pIII) [phage clone Cb4] had an OD (binding of phages to LR04) of 0.6 OD. Moreover, in the test with LRO4 [2], the B/Bo (inhibition of binding to LR04) came to 0.02 B/Bo. Besides, in test [3], the OD (binding of phages to control IgM) turned out to be 0.1 OD.
The corresponding values for ACNNSNMPLCGGGS (peptide, not shown: large carriers, disulfide 2-10; also: C-terminus fused to phage pIII) [phage clone Cb10] are 0.6 OD, 0.02 B/Bo and 0.2 OD.
The corresponding values for ACNNSKMRLCGGGS (peptide, not shown: large carriers, disulfide 2-10; also: C-terminus fused to phage pIII) [phage clone Ca2] are 0.8 OD, 0.12 B/Bo and 0.2 OD.
In the case of ADPFSPTNRIPLGGGS (peptide, not shown: large carriers) [phage clone M7], the OD (binding of phages to LR04) in the test with LRO4 [1] was 1.37 OD. The B/Bo (inhibition of binding to LR04) in the test with LRO4 [2] was 0.1 B/Bo. For the same molecule, in test [3], the OD (binding of phages to control IgM) was found to be 0.03 OD.
For TAVTNSMMERLWGGGS (peptide, not shown: large carriers) [phage clone M8], in that order: 1.57 OD, 0.2 B/Bo and 0.04 OD.
The molecule ACNNRNMPLCGGGS (peptide, not shown: large carriers, disulfide 2-10; also: C-terminus fused to phage pIII) [phage clones Ca59, Cb1] yielded an OD (binding of phages to LR04) with LRO4 [1] of 0.8 OD. In the test with LRO4 [2], this molecule returned a B/Bo (inhibition of binding to LR04) of 0.06 B/Bo. In test [3], this molecule registered an OD (binding of phages to control IgM) of 0.1 OD.
For HSLTNTQMTQLSGGGS (peptide, not shown: large carriers) [phage clone M31], in that order: 1.35 OD, 0.4 B/Bo and 0.03 OD.
In the test with LRO4 [1], ACNNSHMPLCGGGS (peptide, not shown: large carriers, disulfide 2-10; not fully specified) [phage clones Ca9, Cb3, Ca8, Ca10] gave an OD (binding of phages to LR04) of 0.9 OD. This molecule gave a B/Bo (inhibition of binding to LR04) with LRO4 [2] of 0.04 B/Bo. Moreover, in test [3], the OD (binding of phages to control IgM) turned out to be 0.2 OD.
For the molecule ASISNLTLSRFMGGGS (peptide, not shown: large carriers) [phage clone M15], the OD (binding of phages to LR04) with LRO4 [1] is 1.34 OD. For the same molecule, in the test with LRO4 [2], the B/Bo (inhibition of binding to LR04) is 0.15 B/Bo. Moreover, the OD (binding of phages to control IgM) in test [3] is 0.04 OD.
The corresponding values for ACNNWNMPLCGGGS (peptide, not shown: large carriers, disulfide 2-10; also: C-terminus fused to phage pIII) [phage clones Ca1, Ca7] are 0.8 OD, 0.04 B/Bo and 0.1 OD.
As to ACKNSXQPLCGGGS (peptide, not shown: large carriers, disulfide 2-10; not fully specified; X: residue not identified in the source) [phage clone Ca4], in the test with LRO4 [1], the OD (binding of phages to LR04) was 0.9 OD. In the test with LRO4 [2], this molecule had a B/Bo (inhibition of binding to LR04) of 0.13 B/Bo. The molecule further returned an OD (binding of phages to control IgM) in test [3] of 0.1 OD.
For the molecule ESWTNSWAMYFGGGGS (peptide, not shown: large carriers) [phage clone M2], the OD (binding of phages to LR04) with LRO4 [1] was found to be 1.17 OD. Further, the B/Bo (inhibition of binding to LR04) with LRO4 [2] stood at 0.2 B/Bo. In addition, in test [3], the OD (binding of phages to control IgM) amounted to 0.03 OD.
In the test with LRO4 [1], NSWTNASLSTFHGGGS (peptide, not shown: large carriers) [phage clone A40] showed an OD (binding of phages to LR04) of 0.89 OD. Moreover, the B/Bo (inhibition of binding to LR04) in the test with LRO4 [2] is 0.1 B/Bo. This molecule gave an OD (binding of phages to control IgM) in test [3] of 0.04 OD.
For EVMNNWTLASIMGGGS (peptide, not shown: large carriers) [phage clone M30], in that order: 1.04 OD, 0.06 B/Bo and 0.03 OD.
ACQNSHMPLCGGGS (peptide, not shown: large carriers, disulfide 2-10; also: C-terminus fused to phage pIII) [phage clone Ca3] registered an OD (binding of phages to LR04) with LRO4 [1] of 0.5 OD. In the test with LRO4 [2], this molecule registered a B/Bo (inhibition of binding to LR04) of 0.04 B/Bo. In test [3], this molecule gave an OD (binding of phages to control IgM) of 0.1 OD.
In the test with LRO4 [1], DYTNSVSMRYLSGGGS (peptide, not shown: large carriers) [phage clone M36] displayed an OD (binding of phages to LR04) of 1.47 OD. For the same molecule, the B/Bo (inhibition of binding to LR04) with LRO4 [2] turned out to be 0.07 B/Bo. The molecule further yielded an OD (binding of phages to control IgM) in test [3] of 0.01 OD.
Regarding QNMNNWTLASIMGGGS (peptide, not shown: large carriers) [phage clone A31], in the test with LRO4 [1], the OD (binding of phages to LR04) came to 0.85 OD. The molecule further had a B/Bo (inhibition of binding to LR04) with LRO4 [2] of 0.25 B/Bo. In test [3], this molecule yielded an OD (binding of phages to control IgM) of 0.08 OD.
The corresponding values for NSRTNNSQWTFQGGGS (peptide, not shown: large carriers) [phage clone A34] are 0.82 OD, 0.11 B/Bo and 0.11 OD.
As to HQLSNKDEQTPQGGGS (peptide, not shown: large carriers) [phage clone A33], the OD (binding of phages to LR04) in the test with LRO4 [1] stood at 0.63 OD. For the same molecule, the B/Bo (inhibition of binding to LR04) with LRO4 [2] worked out at 0.14 B/Bo. The molecule further displayed an OD (binding of phages to control IgM) in test [3] of 0.05 OD.
The corresponding values for GWGNKTPSQDVHGGGS (peptide, not shown: large carriers) [phage clone A39] are 1.19 OD, 0.19 B/Bo and 0.05 OD.
For QSYTNDDVLRISGGGS (peptide, not shown: large carriers) [phage clone M19], in that order: 1.67 OD, 0.25 B/Bo and 0.03 OD.
For ESWTNSWAHYFGGGGS (peptide, not shown: large carriers) [phage clones A36, B41, M35], in that order: 1.16 OD, 0.14 B/Bo and 0.03 OD.
Molecule HSLSNIQMATLAGGGS (peptide, not shown: large carriers) [phage clones M10, G8] gave an OD (binding of phages to LR04) with LRO4 [1] of 1.16 OD. In the test with LRO4 [2], the B/Bo (inhibition of binding to LR04) turned out to be 0.1 B/Bo. In test [3], this molecule displayed an OD (binding of phages to control IgM) of 0.03 OD.
The corresponding values for ACDWAPHFTCGGGS (peptide, not shown: large carriers, disulfide 2-10; also: C-terminus fused to phage pIII) [phage clone Cb2] are 1 OD, 0.03 B/Bo and 0.2 OD.
Take HRISNYAMELHSGGGS (peptide, not shown: large carriers) [phage clone G4]: the OD (binding of phages to LR04) in the test with LRO4 [1] was 1.45 OD. The B/Bo (inhibition of binding to LR04) in the test with LRO4 [2] turned out to be 0.1 B/Bo. Also, in test [3], the OD (binding of phages to control IgM) turned out to be 0.04 OD.
As for HRMTNNAMDVFMGGGS (peptide, not shown: large carriers) [phage clones M6, G10], in the test with LRO4 [1], the OD (binding of phages to LR04) was 1.56 OD. Besides, the B/Bo (inhibition of binding to LR04) with LRO4 [2] came out at 0.2 B/Bo. In test [3], the OD (binding of phages to control IgM) is 0.03 OD.
The corresponding values for ACNNYNMPLCGGGS (peptide, not shown: large carriers, disulfide 2-10; also: C-terminus fused to phage pIII) [phage clone Cb589] are 0.8 OD, 0.03 B/Bo and 0.1 OD.
The molecule HSWSNYWGHQHAGGGS (peptide, not shown: large carriers) [phage clone A32] returned an OD (binding of phages to LR04) in the test with LRO4 [1] of 0.98 OD. For the same molecule, the B/Bo (inhibition of binding to LR04) in the test with LRO4 [2] was found to be 0.18 B/Bo. Further, the OD (binding of phages to control IgM) in test [3] worked out at 0.02 OD.
For HRLTNSEQAALPGGGS (peptide, not shown: large carriers) [phage clones M3, M5], in that order: 1.56 OD, 0.1 B/Bo and 0.03 OD.
For ACNNSXMPLCGGGS (peptide, not shown: large carriers, disulfide 2-10; not fully specified; X: residue not identified in the source) [phage clone Ca6], in that order: 0.7 OD, 0.04 B/Bo and 0 OD.

The record behind these values is US20150056209A1, “PEPTIDE MIMOTOPES TO OXIDATION SPECIFIC EPITOPES” (The Regents of the University of California, priority 2012, published 2015).
